Laboratory results from patent publication US8273705B2, “Conversion of apoptotic proteins” (The Burnham Institute, priority 2002, dated 2012).

Tests used:
[1] = test system: Bcl-2 mutants Y108K, L137A, G145A, R146Q; assay: Co-IP assay with Bcl-2 hydrophobic groove mutants in HEK293T cells; format: binding
Procedure: TR3/Bcl-2 interaction assays—Reporter gene assays using NurRE-tk-CAT in CV-1 cells, and GST pull-down assay were described previously (Li, et al. 2000 Science 289, 1159-1164). For the mammalian two-hybrid assays, CV-1 cells were co-transfected with pcDNA-Gal4TAD-TR3 or pcDNA-Gal4TAD-TR3/ΔDBD and pcDNA-Gal4DBD-Bcl-2/ΔTM along with a luciferase reporter gene driven by four copies of the Gal4-binding site. The cells were harvested and reporter gene activity was measured. […] Immunoreactive products were detected by chemiluminescence with an enhanced chemiluminescence system (ECL) (Amersham).
Binding of BH3 domain to Bcl-2 is mediated by a hydrophobic cleft formed by the BH1, BH2, and BH3 region of Bcl-2 (Sattler et al. 1997 Science 275:983-986). To determine whether TR3/ΔDBD bound to the Bcl-2 hydrophobic groove, several Bcl-2 mutants with mutations of amino acids, Tyr108, Leu137, or Arg146, critical for the formation of the hydrophobic cleft, were analyzed for their interaction with TR3/ΔDBD. […] The Bcl-2 mutants, Y108KBcl-2, L137ABcl-2 and R146QBcl-2, were analyzed for their interaction with GFP-TR3/ΔDBD in 293T cells by Co-IP assay as described in Example 2. […]

[2] = molecular target: T1, Bcl-2/1-80 (Homo sapiens, UniProt P10415); assay: Co-IP assay with Bcl-2/1-80; format: binding
T1 construct: a fragment of Bcl-2 comprising the first 80 amino acids (Bcl-2/1-80); expressed in transfected cells; host or cells: HEK293T
T1 sequence (P10415 1-80): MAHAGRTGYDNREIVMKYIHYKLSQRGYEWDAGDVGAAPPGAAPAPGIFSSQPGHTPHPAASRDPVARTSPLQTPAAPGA
Procedure: Therefore, TR3/ΔDBD was analyzed as to its interaction with a fragment of Bcl-2 comprising the first 80 amino acids (Bcl-2/1-80). […] The Bcl-2/1-80 fragment encompasses the N-terminal BH4 domain followed by an unstructured loop domain of approximately 50 amino acids length. To determine whether the BH4 domain or the loop region was responsible for binding to TR3/ΔDBD, TR3/ΔDBD interaction with Bcl-2 mutants lacking the BH4 domain (Bcl-2/ΔBH4) or the loop region (Bcl-2/ΔLoop) was analyzed. […] Thus, the loop region of Bcl-2 is involved in binding to TR3.
Deletion of the loop region of Bcl-2 completely blocks paclitaxel-induced apoptosis (Rakesh et al. 1999 PNAS USA 96:3775-3780). To further investigate whether the loop region of Bcl-2 is responsible for its interaction with TR3/ΔDBD, TR3/ΔDBD was co-transfected with the first 80-residue fragment of Bcl-2 including the loop region and BH4 domain.

[3] = molecular target: T2, Bcl-2 (Homo sapiens, UniProt P10415); assay: Bcl-2 conformation by epitope-specific antibody immunofluorescence (flow cytometry); format: cell-based; conditions: HEK293T, co-expressed with Bcl-2, 14 h
T2 construct: expressed in transfected cells; host or cells: HEK293T
T2 sequence (P10415 whole entry): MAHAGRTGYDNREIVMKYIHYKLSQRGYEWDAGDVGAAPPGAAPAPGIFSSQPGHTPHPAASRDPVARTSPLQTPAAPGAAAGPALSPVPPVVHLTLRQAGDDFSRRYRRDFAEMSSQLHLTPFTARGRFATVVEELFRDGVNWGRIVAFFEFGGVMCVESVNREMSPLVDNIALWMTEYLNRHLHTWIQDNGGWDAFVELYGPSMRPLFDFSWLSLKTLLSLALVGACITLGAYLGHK
Procedure: Therefore the possibility that a conformational change might be involved in the conversion of Bcl-2 from anti-apoptotic to pro-apoptotic function was explored. To this end, the effects of TR3 on binding of Bcl-2 to various anti-Bcl-2 antibodies recognizing different epitopes were compared. Antibody binding to Bcl-2 was measured by immunofluorescence using flow cytometry (See FIGS. 9a-f) or by immunoprecipitation.
The transfected cells were identified by their green fluorescence by flow cytometric analysis, and the intensity of Bcl-2 immunofluorescence was compared between the GFP-positive and GFP-negative cells. […] This TR3/ΔDBD-induced change in Bcl-2 conformation was also observed in PBLs in addition to HEK293T cells (See FIGS. 9a-f).

[4] = molecular target: T3, Bcl-2/ΔTM (Homo sapiens, UniProt P10415); assay: Mammalian two-hybrid assay in CV-1 cells; format: cell-based; conditions: Gal-TAD fusion co-expressed with Gal4-DBD-Bcl-2/ΔTM, 48 h
T3 construct: expressed in transfected cells; host or cells: CV-1
T3 sequence (P10415 1-204 limits assumed, stated change not applied): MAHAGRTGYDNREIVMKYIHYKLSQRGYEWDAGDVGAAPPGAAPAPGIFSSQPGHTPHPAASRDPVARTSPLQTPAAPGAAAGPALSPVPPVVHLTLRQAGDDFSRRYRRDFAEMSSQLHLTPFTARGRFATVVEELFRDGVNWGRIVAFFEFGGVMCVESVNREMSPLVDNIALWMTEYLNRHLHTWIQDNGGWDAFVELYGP
Procedure: TR3/Bcl-2 interaction assays—Reporter gene assays using NurRE-tk-CAT in CV-1 cells, and GST pull-down assay were described previously (Li, et al. 2000 Science 289, 1159-1164). For the mammalian two-hybrid assays, CV-1 cells were co-transfected with pcDNA-Gal4TAD-TR3 or pcDNA-Gal4TAD-TR3/ΔDBD and pcDNA-Gal4DBD-Bcl-2/ΔTM along with a luciferase reporter gene driven by four copies of the Gal4-binding site. The cells were harvested and reporter gene activity was measured. For Co-IP assays, HEK293T cells were transiently transfected with various expression plasmids using a modified calcium phosphate precipitation method (Wu et al, 1997) in the presence of caspase inhibitors (zVAD-fmk) to prevent degradation of TR3 protein due to apoptosis. Cells were suspended in lysis buffer (50 mM Tris-HCl, PH7.4; 150 mM NaCl; 20 mM EDTA; 1% NP-40; 1 mM PMSF; 50 μg/ml Leupeptin; […]; 0.1 mM Na3VO4; and 1 mM DTT). […] Immunoreactive products were detected by chemiluminescence with an enhanced chemiluminescence system (ECL) (Amersham).
E. Two-hybrid assay—a two-hybrid assay was performed to assess the interaction of TR3 and Bcl-2. […] Reporter gene activity was determined 48 h later and normalized relative to β-gal activity.

[5] = test system: peripheral blood lymphocytes (PBLs); assay: Apoptosis of peripheral blood lymphocytes; format: cell-based, human; conditions: annexin V-staining, transfection
Procedure: Isolation and transfection of human peripheral blood lymphocytes (PBLs)—Leukocyte-enriched buffy coats from San Diego Blood Bank were diluted with 2 volumes of PBS, and PBLs were isolated by centrifuge on Ficoll-paque™ Plus (Amersham Pharmacia biotech). The mononuclear cells were cultured in RPMI containing 10% FBS and 20 μM Hepes. Freshly isolated cells (10^7 cells per transfection) were washed once with PBS containing 0.5% BSA and supernatant was completely discarded so that no residual PBS/BSA covers the pellet. The cells were resuspended in 100 μl of the human T Cell Nucleofector™ solution (Amexa biosystems) and very gently mixed with 1-4 μg DNA in 5 μl. The cell suspension was transferred into a cuvette supplied by Amexa biosystems and electroporated using U-14 program of Nucleofector™ device. The cells were removed from the cuvette quickly by adding 500 μl of the pre-warmed RPMI medium containing 10% FBS and 20 μM Hepes and transferred into 12 well plates containing 1.5 ml of pre-warmed culture medium.

Bcl-2 mutants Y108K, L137A, G145A, R146Q, sequence (P10415 1-80 limits assumed, stated change not applied): as the sequence (P10415 1-80) above

B1: TR3/ΔDBD: TR3 mutant with the DNA binding domain removed; used as GFP fusion (protein)
chain: MPCIQAQYGTPAPSPGPRDHLASDPLTPEFIKPTMDLASPEAAPAAPTALPSFSTFMDGYTGEFDTFLYQLPGTVQPCSSASSSASSTSSSSATSPASASFKFEDFQVYGCYPGPLSGPVDEALSSSGSDYYGSPCSAPSPSTPSFQPPQLSPWDGSFGHFSPSQTYLVLHRLQCARGFGDWIDSILAFSRSLHSLLVDVPAFACLSALVLITDRHGLQEPRRVEELQNRIASCLKEHVAAVAGEPQPASCLSRLLGKLPELRTLCTQGLQRIFYLKLEDLVPPPPIIDKIFMDTLPF
modifications: left off: large carriers; small tags and cut ends
notes: used as GFP fusion
binding of Bcl-2 hydrophobic groove mutants to TR3/ΔDBD (Co-IP) [1]: still capable of binding | interaction with Bcl-2/1-80 (Co-IP) [2]: strongly interacted | Bcl-2 immunofluorescence, antibody against BH3-binding pocket [3]: reduced | Bcl-2 immunofluorescence, antibody against Bcl-2 BH3 domain [3]: dramatically increased | Bcl-2 immunofluorescence, antibody against whole Bcl-2 protein [3]: did not result in altered Bcl-2 immunofluorescence | Gal4 reporter gene activity [4]: strongly activated | PBL apoptosis [5]: potently induced PBL apoptosis
